Test results: the DeepSol protein solubility set

Test: soluble on expression in E. coli; label from the status in PepcDB or PDB records

Soluble on expression in E. coli, not soluble:
MGSDKIHHHHHHMMQSAAINRRSFVKAAGLGFLATLTPRSLMALERADAVYASGIRAADGSFAIATVTERGEIVDQVALPARAHGIAFSASTGKTVAFARRPGTYAMIFDPWNKSEPIVISSREDRHFYGHGAFSPDGRLLYASENDFDGNRGMIGLYDATDRFTRIGEFETYGIGPHDMTVSDDGRLLIVANGGIETHPDFGRTKLNLGEMQPSLALIDAATGALVEKHVLPAEWAELSTRHVDLDGAGRIWFACQYEGHRKDLPPLVGHFAKGEDLSFIDLPEETTRRLANYVGAIAVNRSEGLVGITSPKGGASVTIDARTGKMLAETSVPDAAGIAPARNGFAVSSYDGDFLSTRSDVAWDQHIVRI
MGSDKIHHHHHHMMRDTPLLHRDDPAKDPLVGHIKVTREDWVNTARDVLVNSGVAQVKIATLAGRLDVSRSSFYWYFQNRDELLSALLQDWQTRNTRSITDHCARPSRSIAQALCNFFRCFVDTRQFDPGLDFAIREWARRNEDVRDAIDAADTARLDAVRAMFDRHDYAPEDADARARILYFMQLGYHALDLREDMETRMSRVSAYVLGFTGISPQNTDIEEFLDYVGDLAPHGISGASQRA
MGSDKIHHHHHHMMSTIYRHLSTARPALTKYATNAAVKSTTASSEASTLGALQYALSLDEPSHSWTKSQLKEIYHTPLLELTHAAQLQHRKWHDPTKVQLCTLMNIKSGGCSEDCKYCAQSSRNDTGLKAEKMVKVDEVIKEAEEAKRNGSTRFCLGAAWRDMKGRKSAMKRIQEMVTKVNDMGLETCVTLGMVDQDQAKQLKDAGLTAYNHNIDTSREHYSKVITTRTYDDRLQTIKNVQESGIKACTGGILGLGESEDDHIGFIYTLSNMSPHPESLPINRLVAIKGTPMAEELADPKSKKLQFDEILRTIATARIVMPKAIIRLAAGRYTMKETEQFVCFMAGCNSIFTGKKMLTTMCNGWDEDKAMLAKWGLQPMEAFKYDRS
MGSDKIHHHHHHMNAIQCETRTYEREYNTHDHSYGQMLFALHGAMEIQTPVYDTFQLEANFGLYLPPHVNHRFRAVARNEFIVVDIPARFLGDAVTTEQHVALDETWGALCHLFRGEAYQPASSQSLRPLVDYLTSKLAKKTLPASIHYMKQHFSEPLSLETLAAIEHYHPAYYSSWFKGYTGMSPSEYLQKLRVKAAKRLLGETTWSVARISIEVGYTHPSGLVRAFTKVEGMTPSAYRNTLH
MGSDKIHHHHHHMNDDIYDEMVRERGREYFLKNMVKYCVKRGNTLHGTVYGSDKYITKVDLKTKTGICTCPYQYNCKHAYALLESYKSGKYVDGDELFLNFSKLDKLEILKIFESIIEKHNLWDEFITEDKTLLDTAKNMLELTKIEKKNVFTFTSFLRNQFLKNAGNEELLLIIPDVIKYIQERKKLEEILFLIVDELFERGKTDKDTLKKLIELSRKYRELWMVKDNILDYEYFELLEY
MGSDKIHHHHHHMNDYLDDYEFNNLDFYRKNHGLQLYYNWSGEICWQETPDKPQEKLFSIIGMNATKVFLKPDPEHGEVGYRINRELGLFCDPDTQEILHSWKSPTASQPVPVVHIANRIVQGSVKPKKFVIPKGKGYITSVMEIPLEYPHPLAGDSKYLDYCPGEKFKGVEYFISNTCRPDATEVPPAKWARDCPWMPWMKLGYAHPAKLRFETTIFRVDSFEQLHPSLVNLVREKVPIYEFTPTESDEPNVTSIQYFKKNFESYLRGDIFPLEERY
MGSDKIHHHHHHMNDYYDLLDRVKILIKLGRYKEALRIIDEVIEDSPDVSFLYYKISILFTCRRFEEAKSTLNTAISIFPGSTVFRIWKMVLALETKDVLSMAQINFNDNSVASSQLNAPFQSMDFNDNYAYTFSKSVRDLIMKLGKSAIYCDLQQLKEKILTERISTETINGLYTDIMDYRNRDIVELSSYGRAFYFYSIGRIGDSFIEISSLPDHEVFKAFILGKYSDFLKQTYEIADPYTRAVRFHILRLRELSLKEIETASYIGMDELVMSKRIIEFNGSSLSTQVVVNKVPESHL
MGSDKIHHHHHHMNEGKILSGLLAPHPPHLVYGENPPQNEPRSQGGWEPLRWAYDQVRENIEHLKPDVLIVHSPHWITQVGHHFLGVPRLTGRSVDPIFPNLFRYDFGMNVDVELAEACCEEATKLGLVSKMMRNPSFRVDYGTITTLHMVRPQWDIPVVGISANNTPYYLNTKEGLGEMDLLGRATREAIRKTGRRAVLLASNTLSHWHFHEEPALPEDMSKEHPERYDGYLWDVRMIELMRKGHMKEVFELLPQFIEEAFAEIKSGAFTWMHAAMGYPELAGKLHGYGTVIGTGNAVIEWNLEDVGLSRLESVA
MGSDKIHHHHHHMNEPHGERISVEIPGLERILRGGFLPGRSYLVSGGPGTGKTTLGLQYLASSADGNGLLISLGESERNLRADALRIGLSLDGTSVIDLSPGADAEPEAAYTLLEPWEAEGVDIRSRIGALLPDGPPERVFIDALSQLRQLMPDAYQFRKQVMGLLEYLNSAGTTVLYTAEQGSSADTDLRYLGDGILELEHRENRRILRVLKFRGSGFSEGEHTLRLGDHGMQVFERLMPGEHRRTYVAEELPCGIGELDRLSGGGITRGTVTIISGPTGVGKTSLGLQYMHEAARRGERSVVYTFEESIGTLRTRCEAIGIPVSDMMAKGSLSIDEVEPLHYSPDEFAWRVRTEVEQQGARMVMLDSLAGFRQSVRGDDITAHAHALCHYLSNMGVTVLLVNEQSAIAGEELRPSEDDINYLADTIVLLRYMELDGGLRKAIGILKKRTGDFEKTLREFQITREGLRVGAPLYGLQGILQGIPSKIATLDATE
MGSDKIHHHHHHMNFIEQISENNQFPIIFVGSGITQRYFENAPTWEKLLKDIWLELFDEESYYAKAFELRERFENNDFDIYTNLASLLEKEVSKAFINGNIQVDNLDLKTAYELNISPFKQLVANRFSNLKIREEKIEEIKQFSQMLSKARIIITTNYDNFIEECLKTINVSVKINVGNKGLFLKSSDYGELYKIHGTVDDASTITITKEDYEKNVTKSALINAKILSNLVESPILFLGYSLTDENIRKLLTDFAENSPFDISESAQKIGVVEYLPDSESIETVVSSLPDLSVYYSCLKTDNFTNIYRLISKINQGFLPSEIAKYENVFRKIIEVKGESKDLKTVLTSYEDLANLTEDEIRSKNIVVAFGDERYIYKFPDFKEYVRSYFLDKETIPQEIVIRFIATQPVASHLPIKKYMFAMSEYISKDSNKYTENIKKRLSKEEELSLDDFTSSIGVPLLHSKTLERQTEIVGILEADVPDNVRYNFIATHIKNFPKEELFLLVEKIIDEGIFETSRRRFLKAFDLLHY
MGSDKIHHHHHHMNFTKIAVSAGCILALCAGCGANDTSSTKEKASSEKSGVTKEITASVNKMETIISKLNDSVEKGDQKEIEKKGKELNSYWLSFENDIRSDYPFEYTEIEKHLQPIYTEAQKDKPDAGKIKTESESLKASLEDLTEAKKSGKKASDQLAKAADEYKGYVKEQSDQLVKATEAFTGAVKSGDIEKSKTLYAKARVYYERIEPIAESLGDLDPKIDARENDVEEGDKWTGFHKLEKAIWKDQDISGEKATADQLLKDVKELDGSIQSLKLTPEQIVAGAMELLNEAGISKITGEEERYSRIDLVDLMANVEGSEAVYQTVKSALVKDHSDLTEKLDTEFSEFEVLMAKYKTNDQSYTSYDKLSEKQIRELSTKLTTLSETMSKIANVL
MGSDKIHHHHHHMNGKAVQLKEEADEPGWEVDPDDEWGVAVVETVGRQLKLRREALGMRAADFGTAVGYGEDMVYKIESGKRIPRPEFLDRADELLGAGGLLSAMKEDVKKVRYPKNVREIAKLEAQAVELGVYVGLSLHGLLQTPEHARALFEVWQPAYSPEEAERRMAARMARKAIFERSPAPALSFVQEEATLRRPVGGTMVWRQQLEHLLEVGQLRNVTLQVMPTNSEAHPGLSGRIEVLKFSDGTAVGRSDGAYNGRPISDPKQLRILELRYGTIRAQALPPRESLAFIEQLLGET
MGSDKIHHHHHHMNIERADFVDRVKIFVKAGDGGNGCVSFRREKYVPKGGPDGGDGGNGGFVFLRANPSVSTLIEFVNKRKFMAENGKHGMGKKMKGRNGKDLFIDVPVGTVVKDAVTGEVIADLNEPGKIVCVARGGRGGRGNAHFATSIKQAPLIAERGEKGESRWLELELKILADVGLVGYPNVGKSSLISRISNARPKIANYPFTTLIPNLGVVKYDDFSFVVADIPGLIEGASEGVGLGNVFLRHVERCYLIAHVIDVSGYEREDPVRDYFVIREEMKKYSPFLLEKPEIVVANKIDLIGKEELEKILKRLRDATNREVIPVSAVTGEGIDLLVSKLASIVREMKVEKPERKEEKFVKPSPVWRRLPEKFHLEVVKEDEGYWVVEGENLRVWIERFDLNQRDARLMLLQVLEKNGLNNKLKEAGVKEGDVVRIGDFEFEYRE
MGSDKIHHHHHHMNIIGFSKALFSTWIYYSPERILFDAGEGVSTTLGSKVYAFKYVFLTHGHVDHIAGLWGVVNIRNNGMGDREKPLDVFYPEGNRAVEEYTEFIKRANPDLRFSFNVHPLKEGERVFLRNAGGFKRYVQPFRTKHVSSEVSFGYHIFEVRRKLKKEFQGLDSKEISRLVKEKGRDFVTEEYHKKVLTISGDSLALDPEEIRGTELLIHECTFLDARDRRYKNHAAIDEVMESVKAAGVKKVILYHISTRYIRQLKSVIKKYREEMPDVEILYMDPRKVFEM
MGSDKIHHHHHHMNKDLKAIKWFITTQILKDPFNPAYATFKVTSRCNLRCTFCSPSYYSGELGEGSTERVKKIIDNLRDSSIVVLSFEGGEPTYRPDILDLLEYAHDGSFYIMLTTNGYRLKDEDFLTKLADKIDFLHYSIDEYHWNVKELENLCRFRKYGLKVNVQTVVTRYNLYKLEEKVRKVAECGYKILAMPAVDYPNSKVKLAPDPYEFYKVLYDLKRKYGSTLNNSWGFINAIIGKVPKRVVSYAITIYPNGDLPYPDDINGEIVGNVAEEPLNKILQSSKVKELQQKMLENQAKFEYLHLQTASFNNIRDLASYVSEMLRWRFTGRA
MGSDKIHHHHHHMNKLNFKGSVMLNPTPVVLVTSKDKSQNLNVFTVGWVSTVCTKDPIIAMGIRPERLSYQYIKESCECVINLPTTSMVKIVDYCGVVSGRRVDKIKHFSLPLNDGVSISTPSLENCPVALECKVKSVTPLGTHDLFLLQVLNVKIDETLLDKNNKICFNKANLMCYNHGEYYGLNSKPIGSFGFSVKKKTKKIHRRKKGD
MGSDKIHHHHHHMNKRRNGLSSRSSTKGITTITIDPLMLVEMMHIHDSAFPIGGYTHSFGLETYIQRDIVKDENSLIQWCRTYLYDNLGYGDGILLKETLEVLKKSGSLAAIIEVDRLAHAQKLARESREGSLKMGRQFLQTVLPLQEDESLSQWAQLIRAKEAHGHYATTYGVFSYTRAYPDQMTMIAFLYSSVANLVHNAVRAIPLGQSTGVRVIHQLHEDCLYVAQQVVARSLNDLSNHAIGIELASMEHEHLHSRLFIS
MGSDKIHHHHHHMNLEDIFSILPEKIEREVKRISDYNNLQEIRIKVNKPLIIQIGKKEIISNYIATKEDLKKTFNVMSGYSIYSVEDELRQGYITIKGGHRVGICGDCVLEENKIKTIKNISSLNIRICKEVTGCSNSIMKKIVYGNTVLNTIIISPPNCGKTTLLRDITRNISYGINSIQFRGKKVCVIDERSEIGACLNGVNQMDIGIRTDILDNCPKSIGIMMAIRSMAPEVIICDEIGTYDDIKSILTAVNCGVKLITTIHGFGIEDLNSRDVFKDAIKNNVFERAIVLSGRSGVGTVEYIYDFYTKERERGL
MGSDKIHHHHHHMNLRNTAVFKFLVLTLGIISCQAYAEDTVIVNDHDISAIKDCWQKNSDDDTDVNVIKSCLRQEYNLVDAQLNKAYGEAYRYIEQVPRTGVKKPDTEQLNLLKKSQRAWLDFRDKECELILSNEDVQDLSDPYSESEWLSCMIIQTNTRTRQLQLYRNSEDFYPSPLTRG
